Key:
Test in all cases: other fluorescence titration; 5-IAF-labelled Ypd1-T12C (30 pmol in 1.9 mL) titrated with Sln1-R1, 10 nM to 6 uM; 23.0 °C; 20 mM Tris pH 8.0, 50 mM NaCl, 10 mM MgCl2; excitation 492 nm, emission 515 nm; quadratic fit; 'observed' Kd, three replicate titrations
Conditions in all cases: both partners purified
[1] = target: T1, Ypd1-T12C~F (fluorescein-labelled Ypd1-T12C) (S. cerevisiae, UniProt Q07688 3-167, T12C, 5-iodoacetamidofluorescein (5-IAF) on the cysteine introduced at position 12 (70-90% of the molecules labelled))
T1 construct: Ypd1, histidine phosphotransfer (HPt) protein of Saccharomyces cerevisiae; YPD1 gene in pET21a(+), T12C; also called WT; 5-IAF labelled Ypd1
T1 sequence: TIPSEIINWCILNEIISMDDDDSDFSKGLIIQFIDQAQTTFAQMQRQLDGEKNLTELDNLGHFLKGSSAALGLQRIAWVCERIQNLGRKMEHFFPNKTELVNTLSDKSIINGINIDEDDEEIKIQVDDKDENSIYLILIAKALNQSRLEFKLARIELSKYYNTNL

[2] = target: T2, Ypd1-T12C-G68L, fluorescein-labelled (S. cerevisiae, UniProt Q07688 3-167, T12C | G68L, 5-iodoacetamidofluorescein (5-IAF) on the cysteine introduced at position 12)
T2 construct: Ypd1, HPt protein of Saccharomyces cerevisiae; double mutant made on pET-Ypd1-T12C; also called Ypd1-G68L
T2 sequence: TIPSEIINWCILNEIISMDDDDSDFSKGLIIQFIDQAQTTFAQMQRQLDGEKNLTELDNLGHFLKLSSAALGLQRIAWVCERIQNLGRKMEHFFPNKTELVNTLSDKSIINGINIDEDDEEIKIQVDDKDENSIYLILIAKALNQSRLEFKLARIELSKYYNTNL

[3] = target: T3, Ypd1-T12C-G68V, fluorescein-labelled (S. cerevisiae, UniProt Q07688 3-167, T12C | G68V, 5-iodoacetamidofluorescein (5-IAF) on the cysteine introduced at position 12)
T3 construct: Ypd1, HPt protein of Saccharomyces cerevisiae; double mutant made on pET-Ypd1-T12C; also called Ypd1-G68V
T3 sequence: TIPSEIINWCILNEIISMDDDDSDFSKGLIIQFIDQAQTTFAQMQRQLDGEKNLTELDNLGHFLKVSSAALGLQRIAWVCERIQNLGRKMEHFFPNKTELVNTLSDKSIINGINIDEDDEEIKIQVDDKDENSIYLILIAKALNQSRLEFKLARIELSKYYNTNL

[4] = target: T4, Ypd1-T12C-G68E, fluorescein-labelled (S. cerevisiae, UniProt Q07688 3-167, T12C | G68E, 5-iodoacetamidofluorescein (5-IAF) on the cysteine introduced at position 12)
T4 construct: Ypd1, HPt protein of Saccharomyces cerevisiae; double mutant made on pET-Ypd1-T12C; also called Ypd1-G68E
T4 sequence: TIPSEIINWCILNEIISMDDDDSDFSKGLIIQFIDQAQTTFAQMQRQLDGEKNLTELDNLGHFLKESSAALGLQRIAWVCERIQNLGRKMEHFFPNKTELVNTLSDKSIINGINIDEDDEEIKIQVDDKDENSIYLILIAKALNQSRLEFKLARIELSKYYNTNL

[5] = target: T5, Ypd1-T12C-G68Q, fluorescein-labelled (S. cerevisiae, UniProt Q07688 1-167, T12C | G68Q, 5-iodoacetamidofluorescein (5-IAF) on the cysteine introduced at position 12)
T5 construct: Ypd1, HPt protein of Saccharomyces cerevisiae; double mutant made on pET-Ypd1-T12C; PDB 6M7W is the single mutant Ypd1-G68Q (from pUC-Ypd1, without T12C); also called Ypd1-G68Q
T5 sequence: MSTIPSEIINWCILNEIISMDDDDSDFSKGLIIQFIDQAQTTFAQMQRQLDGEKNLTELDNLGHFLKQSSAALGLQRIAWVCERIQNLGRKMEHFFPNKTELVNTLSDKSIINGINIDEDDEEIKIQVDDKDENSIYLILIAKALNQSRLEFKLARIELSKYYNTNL

B1: Sln1-R1 (receiver domain of Sln1) (domain or fragment, S. cerevisiae)
chain: TSVKILVVEDNHVNQEVIKRMLNLEGIENIELACDGQEAFDKVKELTSKGENYNMIFMDVQMPKVDGLLSTKMIRRDLGYTSPIVALTAFADDSNIKECLESGMNGFLSKPIKRPKLKTILTEFCAAYQGKKNNK
notes: Receiver domain (R1) of the hybrid sensor histidine kinase Sln1 of Saccharomyces cerevisiae, in the vector pFJS16; neither is said here; also called receiver domain from Sln1
Q: B1 was tested. Which Kd [1] did it give?
A: Its Kd is 940 nM.

Q: And the Kd [2]?
A: The Kd was 1300 nM.

Q: And the Kd [3]?
A: The Kd was 2900 nM.

Q: And the Kd [4]?
A: Its Kd is 500 nM.

Q: And the Kd [5]?
A: Its Kd is 600 nM.

Source: article PMC6341664, “Role of the highly conserved G68 residue in the yeast phosphorelay protein Ypd1: implications for interactions between histidine phosphotransfer (HPt) and response regulator proteins” (BMC Biochemistry, 2019)
